Measured values taken from patent US8975259B2, “Compositions and methods for inhibiting G protein signaling” (University of Rochester, priority 2007, dated 2015).

Experiments:
Experiment in all cases: Phage ELISA: binding of peptide-displaying phage to wild-type or alanine-substituted b-βγ
Parameters in all cases: species or system rat
Gβ1γ2 (Gβ1 mutants) [1] = target: T1, Gβ1γ2 (Gβ1 mutants) (UniProt P54311+P63212, W99A); conditions: Gβ1 Trp99Ala; mean ± SD
T1 construct: made in house; host or cells: Sf9 insect cells (baculovirus), partially purified via (His)6-Gαi1 on Ni-NTA
Text: (§1) Wild-type Gβ1 and Gp1 mutants were made in the baculovirus vector PDW464 which encodes a biotinylation site at a lysine upstream of the amino terminus of Gβ1 (Goubaeva, et al. (2003) supra). Mutants were generated by overlap extension PCR using standard protocols. The wild-type and mutant Gβ1 constructs consisted of a 20 amino acid biotin acceptor peptide (BAP) sequence fused in-frame with the amino-terminus of rat Gβ1 subunit. When coexpressed with biotin holoenzyme synthetase (BirA) in Sf9 cells, the Gβ1 subunit becomes covalently biotinylated in vivo at the specific lysine acceptor residue in the BAP. Using this approach, 1-2 mg protein of purified protein can be obtained per liter of Sf9 insect cells. As 45 ng of protein is used in the phage ELISA assay, a single purification is sufficient for 10,000 to 30,000 binding assays.
(§2) Phage ELISA assays used to assess peptide binding to wild-type and mutant b-βγ were performed according to standard methods (Smrcka and Scott (2002) Methods Enzymol. 344:557-76). Briefly, 1 μg streptavidin was immobilized in the well of a […] overnight at 4° C. The wells were blocked with 100 μL of 2% bovine serum albumin (BSA) in Tris-buffered saline (TBS) for 1 hour at 4° C. followed by three washes of IX TBS/0.5% TWEEN®. Forty μL of 25 nM bGβ1γ2 in TBS/0.5% TWEEN® was added to each well and incubated at 4° C. for 1.5 hour. The wells were washed, followed by the addition of IxIO^6 to IxIO^10 phage particles and incubated at 4° C. for 3 hours. The wells were then washed six times with TBS/0.5% TWEEN® followed by addition of 40 μL of 1:5000 dilution of anti-M13 antibody (Pharmacia, Uppsala, Sweden) and incubated at room temperature for 1 hour. The wells were washed, followed by the addition of 40 μL of (2,2′-Azino-bis (3-ethylbenzthiazoline)-6-sulfonic acid (ABTS) and the colorimetric reaction was monitored at 405 nm. Nonspecific binding was subtracted for each reading.
(§3) The nine peptides were selected to represent the different consensus groups of peptides previously identified (See Scott et al. (2001) supra; Table 15) and to compare binding characteristics within and between consensus groups. […] As disclosed herein, the binding signal obtained in the ELISA assay was correlated to a loss in affinity by comparing the results to behavior of the peptide in a solution based assay. […] For the purposes of present disclosure, any substitution that decreased the binding to less than 20% of the wild-type binding was considered to be a critical binding contact for that peptide.

Gβ1γ2 (Gβ1 mutants) [2] = target: T2, Gβ1γ2 (Gβ1 mutants) (UniProt P54311+P63212, D246S); conditions: Gβ1 Asp246Ser; mean ± SD
T2 construct: made in house; host or cells: Sf9 insect cells (baculovirus), partially purified via (His)6-Gαi1 on Ni-NTA
Text: as §1, §2, §3

Gβ1γ2 (Gβ1 mutants) [3] = target: T3, Gβ1γ2 (Gβ1 mutants) (UniProt P54311+P63212, Y59A); conditions: Gβ1 Tyr59Ala; mean ± SD
T3 construct: made in house; host or cells: Sf9 insect cells (baculovirus), partially purified via (His)6-Gαi1 on Ni-NTA
Text: as §1, §2, §3

Gβ1γ2 (Gβ1 mutants) [4] = target: T4, Gβ1γ2 (Gβ1 mutants) (UniProt P54311+P63212, R314A); conditions: Gβ1 Arg314Ala; mean ± SD
T4 construct: made in house; host or cells: Sf9 insect cells (baculovirus), partially purified via (His)6-Gαi1 on Ni-NTA
Text: as §1, §2, §3

Gβ1γ2 (Gβ1 mutants) [5] = target: T5, Gβ1γ2 (Gβ1 mutants) (UniProt P54311+P63212, L117A); conditions: Gβ1 Leu117Ala; mean ± SD
T5 construct: made in house; host or cells: Sf9 insect cells (baculovirus), partially purified via (His)6-Gαi1 on Ni-NTA
Text: as §1, §2, §3

Gβ1γ2 (Gβ1 mutants) [6] = target: T6, Gβ1γ2 (Gβ1 mutants) (UniProt P54311+P63212, M101A); conditions: Gβ1 Met101Ala; mean ± SD
T6 construct: made in house; host or cells: Sf9 insect cells (baculovirus), partially purified via (His)6-Gαi1 on Ni-NTA
Text: as §1, §2, §3

Gβ1γ2 (Gβ1 mutants) [7] = target: T7, Gβ1γ2 (Gβ1 mutants) (UniProt P54311+P63212, M188A); conditions: Gβ1 Met188Ala; mean ± SD
T7 construct: made in house; host or cells: Sf9 insect cells (baculovirus), partially purified via (His)6-Gαi1 on Ni-NTA
Text: as §1, §2, §3

Gβ1γ2 (Gβ1 mutants) [8] = target: T8, Gβ1γ2 (Gβ1 mutants) (UniProt P54311+P63212, D186A); conditions: Gβ1 Asp186Ala; mean ± SD
T8 construct: made in house; host or cells: Sf9 insect cells (baculovirus), partially purified via (His)6-Gαi1 on Ni-NTA
Text: as §1, §2, §3

Gβ1γ2 (Gβ1 mutants) [9] = target: T9, Gβ1γ2 (Gβ1 mutants) (UniProt P54311+P63212, W332A); conditions: Gβ1 Trp332Ala; mean ± SD
T9 construct: made in house; host or cells: Sf9 insect cells (baculovirus), partially purified via (His)6-Gαi1 on Ni-NTA
Text: as §1, §2, §3

Gβ1γ2 (Gβ1 mutants) [10] = target: T10, Gβ1γ2 (Gβ1 mutants) (UniProt P54311+P63212, Y145A); conditions: Gβ1 Tyr145Ala; mean ± SD
T10 construct: made in house; host or cells: Sf9 insect cells (baculovirus), partially purified via (His)6-Gαi1 on Ni-NTA
Text: as §1, §2, §3

Gβ1γ2 (Gβ1 mutants) [11] = target: T11, Gβ1γ2 (Gβ1 mutants) (UniProt P54311+P63212, N230A); conditions: Gβ1 Asn230Ala; mean ± SD
T11 construct: made in house; host or cells: Sf9 insect cells (baculovirus), partially purified via (His)6-Gαi1 on Ni-NTA
Text: as §1, §2, §3

Gβ1γ2 (Gβ1 mutants) [12] = target: T12, Gβ1γ2 (Gβ1 mutants) (UniProt P54311+P63212, K57A); conditions: Gβ1 Lys57Ala; mean ± SD
T12 construct: made in house; host or cells: Sf9 insect cells (baculovirus), partially purified via (His)6-Gαi1 on Ni-NTA
Text: as §1, §2, §3

Gβ1γ2 (Gβ1 mutants) [13] = target: T13, Gβ1γ2 (Gβ1 mutants) (UniProt P54311+P63212, H311A); conditions: Gβ1 His311Ala; mean ± SD
T13 construct: made in house; host or cells: Sf9 insect cells (baculovirus), partially purified via (His)6-Gαi1 on Ni-NTA
Text: as §1, §2, §3

Sequence	% of Wild-Type Signal (Gβ1γ2 (Gβ1 mutants) [1]) [%]	% of Wild-Type Signal (Gβ1γ2 (Gβ1 mutants) [2]) [%]	% of Wild-Type Signal (Gβ1γ2 (Gβ1 mutants) [3]) [%]	% of Wild-Type Signal (Gβ1γ2 (Gβ1 mutants) [4]) [%]	% of Wild-Type Signal (Gβ1γ2 (Gβ1 mutants) [5]) [%]	% of Wild-Type Signal (Gβ1γ2 (Gβ1 mutants) [6]) [%]	% of Wild-Type Signal (Gβ1γ2 (Gβ1 mutants) [7]) [%]	% of Wild-Type Signal (Gβ1γ2 (Gβ1 mutants) [8]) [%]	% of Wild-Type Signal (Gβ1γ2 (Gβ1 mutants) [9]) [%]	% of Wild-Type Signal (Gβ1γ2 (Gβ1 mutants) [10]) [%]	% of Wild-Type Signal (Gβ1γ2 (Gβ1 mutants) [11]) [%]	% of Wild-Type Signal (Gβ1γ2 (Gβ1 mutants) [12]) [%]	% of Wild-Type Signal (Gβ1γ2 (Gβ1 mutants) [13]) [%]
SIGKALFILGYPDYD [Compound 3.14]	66.0 ± 7.7	66.5 ± 7.5	24.7 ± 15.2	50.2 ± 5.0	2.1 ± 2.4	26.8 ± 12.5	2.5 ± 3.7	14.4 ± 13.4	7.1 ± 3.7	0.8 ± 0.9	22.4 ± 4.2	18.6 ± 4.6	93.4 ± 21.5
SCEKRLGVRSCT (phage-displayed) [Compound C5]	39.0 ± 3.8	56.3 ± 4.1	73.8 ± 16.6	76.5 ± 6.7	28.5 ± 5.2	47.8 ± 18.9	97.2 ± 14.2	45.7 ± 5.2	3.2 ± 3.7	16.7 ± 4.8	33.5 ± 7.2	5.6 ± 5.3	58.7 ± 14.4
SCGHGLKVQSTIGACA [Compound 3C]	−0.5 ± 5.9	2.0 ± 2.7	8.5 ± 6.4	8.3 ± 3.6	10 ± 13.3	−4.2 ± 5.5	−5.7 ± 5.6	35.0 ± 17.2	−0.3 ± 1.7	2.7 ± 10.5	4.1 ± 4.4	3.6 ± 7.5	30.5 ± 18.9
SCEKRYGIEFCT [Compound C4]	67.0 ± 15.2	35.8 ± 7.4	7.6 ± 9.6	1.4 ± 1.0	18.4 ± 7.1	61.2 ± 30.9	127.5 ± 22.4	51.3 ± 15.0	1.7 ± 3.0	4.4 ± 3.8	11.5 ± 6.0	−0.2 ± 1.9	36.5 ± 8.3
WCPPKAMTQLGIKAC [Compound C14]	10.1 ± 3.3	6.3 ± 13.9	3.6 ± 2.0	3.9 ± 7.9	3.8 ± 9.2	1.1 ± 4.9	9.9 ± 3.8	3.6 ± 1.9	1.6 ± 2.4	1.9 ± 5.9	60.0 ± 26.5	3.0 ± 5.0	6.1 ± 3.4
SCKRTKAQILLAPCT [Compound C1]	1.2 ± 2.7	2.3 ± 3.0	0.3 ± 0.7	2.8 ± 1.6	5.2 ± 3.1	70.5 ± 35.3	4.0 ± 3.4	1.4 ± 1.7	−0.3 ± 2.5	88.0 ± 29.9	19.8 ± 12.3	0.1 ± 1.6	3.0 ± 4.0
WCPPKLEQWYDGCA [Compound C2]	−1.0 ± 5.1	5.9 ± 5.7	−1.7 ± 4.8	1.3 ± 3.1	1.5 ± 5.5	157.1 ± 51.5	−0.7 ± 2.5	267.2 ± 40.6	4.7 ± 6.2	4.5 ± 8.1	0.0 ± 3.3	−1.2 ± 4.5	11.7 ± 8.0
SCARFFGTPGCT [Compound C8]	−0.8 ± 2.7	60.8 ± 14.4	4.0 ± 6.2	20.8 ± 11.1	24.7 ± 12.5	23.6 ± 8.5	122.6 ± 26.2	124.9 ± 29.1	0.7 ± 2.4	17.5 ± 7.8	74.8 ± 14.8	14.2 ± 9.8	51.6 ± 13.2
